Measured values: patent US20260028608A1 (HANSA BIOPHARMA, published 2026)

How the values were obtained:
Test in all cases: cell-based or functional assay
[1] = biological target: XGEVA (Amgen), human IgG2
[2] = biological target: Humira (Abbvie), human IgG1
[3] = biological target: XGEVA (Amgen), human IgG2; remark: listed apart in the source
[4] = biological target: Humira (Abbvie), human IgG1; remark: listed apart in the source
[5] = biological target: human IgG4 from Abcam (ab90286 Lot #GR3180469) (human)
[6] = biological target: human IgG3 from Sigma (15654 Lot #SLBW0899) (human)

Row | Binder | Conc. of enzyme for cleavage of 1st IgG2 heavy chain, IgG to scIgG (SDS-PAGE) [1] [ng/mL] | Conc. of enzyme for cleavage of 2nd IgG2 heavy chain, scIgG to F(ab)2 (SDS-PAGE) [1] [ng/mL] | Conc. of enzyme for cleavage of 1st IgG1 heavy chain, IgG to scIgG (SDS-PAGE) [2] [ng/mL] | Conc. of enzyme for cleavage of 2nd IgG1 heavy chain, scIgG to F(ab')2 (SDS-PAGE) [2] [ng/mL] | Approximate EC50 value, i.e. equal amounts of scIgG and F(ab')2 (SDS-PAGE) [1] [µg/mL] | Approximate EC50 value, i.e. equal amounts of scIgG and F(ab')2 (SDS-PAGE) [2] [µg/mL] | IgG2 EC50 F(ab')2 (SDS-PAGE, visual estimate) [3] [µg/mL] | IgG2 EC50 scIgG (SDS-PAGE, visual estimate) [3] [µg/mL] | IgG1 EC50 F(ab')2 (SDS-PAGE, visual estimate) [4] [µg/mL] | IgG1 EC50 scIgG (SDS-PAGE, visual estimate) [4] [µg/mL] | IgG4 EC50 F(ab')2 (SDS-PAGE, visual estimate) [5] [µg/mL] | IgG4 EC50 scIgG (SDS-PAGE, visual estimate) [5] [µg/mL] | IgG3 EC50 F(ab')2 (SDS-PAGE, visual estimate) [6] [µg/mL] | IgG3 EC50 scIgG (SDS-PAGE, visual estimate) [6] [µg/mL]
1 | pCART242, a variant IdeZ polypeptide of the invention (enzyme) MSVWTKGVTPPEQFTQGEDVIHAPYLAHQGWYDITKAFNGKDDLLCGAATAGNMLHWWFDQNKTEIEAYLSKHPEKQKIIFRNQELFDLKAAIDTKDSQTNSQLFNYFRDKAFPNLSARQLGVMPDLVLDMFINGYYLNVFKTQSTDVNRPYQDKDKRGGIFDAVFTRGNQTTLLTARHDLKNKGLNDISTIIKQELTEGRALALSHTYANVSISHVINLWGADFNAEGNLEAIYVTDSDANASIGMKKYFVGINAHGHVAISAKKIEGENIGAQVLGLFTLSSGKDIWQKLSGGGHHHHHH | ~10 | ~400 | ~1.5 | ~40 | – | – | – | – | – | – | – | – | – | –
2 | pCART207, a variant IdeZ polypeptide (enzyme) MDDYQRNATEAYAKEVPHQITSVWTKGVTPPEQFTQGEDVIHAPYLAHQGWYDITKAFDGKDNLLCGAATAGNMLHWWFDQNKTEIEAYLSKHPEKQKIIFRNQELFDLKAAIDTKDSQTNSQLFNYFRDKAFPNLSARQLGVMPDLVLDMFINGYYLNVFKTQSTDVNRPYQDKDKRGGIFDAVFTRGDQTTLLTARHDLKNKGLNDISTIIKQELTEGRALALSHTYANVSISHVINLWGADFNAEGNLEAIYVTDSDANASIGMKKYFVGINAHGHVAISAKKIEGENIGAQVLGLFTLSSGKDIWQKLS | ~40 | ~3300 | ~1.5 | ~120 | ~1.1 | ~0.04 | – | – | – | – | – | – | – | –
3 | pCART229, a variant IdeZ polypeptide (enzyme) MDDYQRNATEAYAKEVPHQITSVWTKGVTPPEQFTQGEDVIHAPYLAHQGWYDITKAFDGKDNLLCGAATAGNMLHWWFDQNKTEIEAYLSKHPEKQKIIFRNQELFDLKAAIDTKDSQTNSQLFNYFRDKAFPNLSARQLGVMPDLVLDMFINGYYLNVFKTQSTDVNRPYQDKDKRGGIFDAVFTRGNQTTLLTARHDLKNKGLNDISTIIKQELTEGRALALSHTYANVSISHVINLWGADFNAEGNLEAIYVTDSDANASIGMKKYFVGINAHGHVAISAKKIEGENIGAQVLGLFTLSSGKDIWQKLS | ~40 | ~3300 | ~1.5 | ~120 | ~1.1 | ~0.04 | – | – | – | – | – | – | – | –
4 | N240, a variant IdeZ polypeptide of the invention (enzyme) MDDYQRNATEAYAKEVPHQITSVWTKGVTPPEQFTQGEDVIHAPYLAHQGWYDITKAFNGKDDLLCGAATAGNMLHWWFDQNKTEIEAYLSKHPEKQKIIFRNQELFDLKAAIDTKDSQTNSQLFNYFRDKAFPNLSARQLGVMPDLVLDMFINGYYLNVFKTQSTDVNRPYQDKDKRGGIFDAVFTRGNQTTLLTARHDLKNKGLNDISTIIKQELTEGRALALSHTYANVSISHVINLWGADFNAEGNLEAIYVTDSDANASIGMKKYFVGINAHGHVAISAKKIEGENIGAQVLGLFTLSSGKDIWQKLS | – | – | – | – | – | – | 0.12 | 0.0046 | 0.014 | 0.0005 | 0.062 | 0.002 | 0.015 | 0.007
